Assay results taken from US20160176924A1, “MODIFIED PEPTIDES AS POTENT INHIBITORS OF THE PSD-95/NMDA RECEPTOR INTERACTION” (priority 2008, published 2016).

T1: HIS-PDZ2 protein (PSD-95 PDZ2, residues 155-249, with tag …) (human), P78352
T1 chain: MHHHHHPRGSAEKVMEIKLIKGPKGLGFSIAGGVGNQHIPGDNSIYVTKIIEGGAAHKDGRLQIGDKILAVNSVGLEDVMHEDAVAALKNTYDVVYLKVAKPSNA


Experiments:
[1] = target: T2, HIS-PDZ1 protein (PSD-95 PDZ1, residues 61-151, with tag …) (human), P78352; experiment: FP competition, fluorescent NR2B probe; truncation series of NR2B peptide (1)
[2] = target: T1, HIS-PDZ2 protein (PSD-95 PDZ2, residues …); experiment: as above
[3] = target: T2, HIS-PDZ1 protein (PSD-95 PDZ1, residues …); experiment: FP competition, fluorescent NR2B probe
[4] = target: T3, HIS-PDZ1-2 protein (PSD-95 PDZ1-2 tandem, residues 61-249, with tag …) (human), P78352; experiment: FP competition, fluorescent NR2B probe
[5] = target: T1, HIS-PDZ2 protein (PSD-95 PDZ2, residues …); experiment: FP competition, fluorescent NR2B probe
[6] = target: T3, HIS-PDZ1-2 protein (PSD-95 PDZ1-2 …); experiment: ITC; monomeric IETAV, no linker

| fold increase in Ki [1] [fold] | fold increase in Ki [2] [fold] | Ki [3] [µM] | Ki [4] [µM] | Ki [5] [µM] | Kd [6] [µM] | Binder |
| --- | --- | --- | --- | --- | --- | --- |
| 3.1 | 6.8 | 56 | 28 | 28 |  | ESDV (modifications not checked) [ESDV (8)] |
|  |  |  | 2.5 | 1.7 | 1.9 | IETAV (modifications not checked) [IETAV (82)] |
